T1: CEA (carcinoembryonic antigen, Biodesign Intl., Saco, Me.) (UniProt P06731 35-685)
T1 construct: also called immobilized CEA
T1 sequence: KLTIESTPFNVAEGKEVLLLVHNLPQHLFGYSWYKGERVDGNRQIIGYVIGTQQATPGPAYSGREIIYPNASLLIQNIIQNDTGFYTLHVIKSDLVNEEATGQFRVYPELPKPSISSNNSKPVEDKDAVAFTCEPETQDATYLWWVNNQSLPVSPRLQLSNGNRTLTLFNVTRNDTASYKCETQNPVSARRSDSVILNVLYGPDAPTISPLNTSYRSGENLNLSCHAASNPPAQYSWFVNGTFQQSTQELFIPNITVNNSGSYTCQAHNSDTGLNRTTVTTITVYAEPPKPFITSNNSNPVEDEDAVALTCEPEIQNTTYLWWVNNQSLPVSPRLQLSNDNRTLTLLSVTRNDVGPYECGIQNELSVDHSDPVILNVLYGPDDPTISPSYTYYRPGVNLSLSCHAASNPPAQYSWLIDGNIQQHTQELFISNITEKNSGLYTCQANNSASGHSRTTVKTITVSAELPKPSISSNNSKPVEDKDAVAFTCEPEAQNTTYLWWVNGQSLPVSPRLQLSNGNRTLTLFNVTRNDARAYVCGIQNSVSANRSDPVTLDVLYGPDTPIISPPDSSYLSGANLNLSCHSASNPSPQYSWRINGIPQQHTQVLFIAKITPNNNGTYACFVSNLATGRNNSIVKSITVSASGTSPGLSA


Columns and labels:
[1] = target: T1, CEA (carcinoembryonic antigen, …); assay: CEA-coated plate, bound BLA activity (nitrocefin), cell lysate
[2] = target: T1, CEA (carcinoembryonic antigen, …); assay: CEA-coated plate after thermolysin treatment of the lysate, bound BLA activity

Binder | binding result [1] | binding result [2]
NA05.12 (scFv) QVQLQQSGAELVRPGTSVKLSCTASGFNIKDSYMHWVRQGPEQGLEWIGWIDPENGDTEYAPKFQGKATFTTDTSSNTAYLQLSSLTSEDTAVYYCNEGTPTGPYYFDYWGQGTTVTVSSGGGGSGGGGSGGGGSENVLTQSPAIVSASPGEKVTITCSASSSVSYMHWFQQKPGTSPKLWIYSTSNLASGVPARFSGSGSGTSYSLTISRMEAEDAATYYCQQRSSYPLTFGAGTKLELKRAATPVSEKQLAEVVANTITPLMKAQSVPGMAVAVIYQGKPHYYTFGKADIAANKPVTPQTLFELGSISKTFTGVLGGDAIARGEISLDDAVTRYWPQLTGKQWQGIRMLDLATYTAGGLPLQVPDEVTDNASLLRFYQNWQPQWKPGTTRLYANASIGLFGALAVKPSGMPYEQAMTTRVLKPLKLDHTWINVPKAEEAHYAWGYRDGKAVRVSPGMLDAQAYGVKTNVQDMANWVMANMAPENVADASLKQGIALAQSRYWRIGSMYQGLGWEMLNWPVEANTVVETSFGNVALAPLPVAEVNPPAPPVKASWVHKTGSTGGFGSYVAFIPEKQIGIVMLANTSYPNPARVEAAYHILEALQ | binds | 
NA06.2 (scFv) QVKLQQSGAELVKSGGSVKLSCTASGFNIKDSYMHWVRQGPGQGLEWIGWIDPENGDTEYAPKFQGKATFTTDTSSNTAYLQLSSLTSEDTAVYYCNEGTPTGPYYFDYWGQGTTVTVSSGGGGSGGGGSGGGGSENVLTQSPAIMSASPGEKVTITCSASSSVSYMHWFQQKPGTSPKLVIYSTSNLASGVPDRFSGSGSGTSYSLTISRMEAEDAATYYCQQRSSYPLTFGAGTKLELKRAATPVSEKQLAEVVANTITPLMKAQSVPGMAVAVIYQGKPHYYTFGKADIAANKPVTPQTLFELGSISKTFTGVLGGDAIARGEISLDDAVTRYWPQLTGKQWQGIRMLDLATYTAGGLPLQVPDEVTDNASLLRFYQNWQPQWKPGTTRLYANASIGLFGALAVKPSGMPYEQAMTTRVLKPLKLDHTWINVPKAEEAHYAWGYRDGKAVRVSPGMLDAQAYGVKTNVQDMANWVMANMAPENVADASLKQGIALAQSRYWRIGSMYQGLGWEMLNWPVEANTVVETSFGNVALAPLPVAEVNPPAPPVKASWVHKTGSTGGFGSYVAFIPEKQIGIVMLANTSYPNPARVEAAYHILEALQ |  | binds
NA06.4 (scFv) QVKLQQSGAELVKSGGSVKLSCTASGFNIKDSYMHWVRQGPEQGLEWIGWIDPENGDTEYAPKFQGKATFTTDTSSNTAYLQLSSLTSEDTAVYYCNEGTPTGPYYFDYWGQGTTVTVSSGGGGSGGGGSGGGGSENVLTQSPAIVSASPGEKVTITCSASSSVSYMHWFQQKPGTSPKLVIYSTSNLASGVPARFSGSGSGTSYSLTISRMEAEDAATYYCQQRSSYPLTFGAGTKLELKRAATPVSEKQLAEVVANTITPLMKAQSVPGMAVAVIYQGKPHYYTFGKADIAANKPVTPQTLFELGSISKTFTGVLGGDAIARGEISLDDAVTRYWPQLTGKQWQGIRMLDLATYTAGGLPLQVPDEVTDNASLLRFYQNWQPQWKPGTTRLYANASIGLFGALAVKPSGMPYEQAMTTRVLKPLKLDHTWINVPKAEEAHYAWGYRDGKAVRVSPGMLDAQAYGVKTNVQDMANWVMANMAPENVADASLKQGIALAQSRYWRIGSMYQGLGWEMLNWPVEANTVVETSFGNVALAPLPVAEVNPPAPPVKASWVHKTGSTGGFGSYVAFIPEKQIGIVMLANTSYPNPARVEAAYHILEALQ |  | binds
NA06.11 (scFv) QVQLQQSGAELVKSGGSVKLSCTASGFNIKDSYMHWVRQGPEQGLEWIGWIDPENGDTEYAPKFQGKATFTTDTSSNTAYLQLSSLTSEDTAVYYCNEGTPTGPYYFDYWGQGTTVTVSSGGGGSGGGGSGGGGSENVLTQSPAIMSASPGEKVTITCSASSSVSYMHWFQQKPGTSPKLVIYSTSNLASGVPDRFSGSGSGTSYSLTISRMEAEDAATYYCQQRSSYPLTFGAGTKLELKRAATPVSEKQLAEVVANTITPLMKAQSVPGMAVAVIYQGKPHYYTFGKADIAANKPVTPQTLFELGSISKTFTGVLGGDAIARGEISLDDAVTRYWPQLTGKQWQGIRMLDLATYTAGGLPLQVPDEVTDNASLLRFYQNWQPQWKPGTTRLYANASIGLFGALAVKPSGMPYEQAMTTRVLKPLKLDHTWINVPKAEEAHYAWGYRDGKAVRVSPGMLDAQAYGVKTNVQDMANWVMANMAPENVADASLKQGIALAQSRYWRIGSMYQGLGWEMLNWPVEANTVVETSFGNVALAPLPVAEVNPPAPPVKASWVHKTGSTGGFGSYVAFIPEKQIGIVMLANTSYPNPARVEAAYHILEALQ |  | binds
NA05.15 (scFv) QVKLQQSGAELVRSGTSVKLSCTASGFNIKDSYMHWLRQGPEQGLEWIGWIDPENGDTEYAPKFQGKATFTTDTSSNTAYLQLSSLTSEDTAVYYCNEGTPTGPYYFDYWGQGTTVTVSSGGGGSGGGGSGGGGSENVLTQSPAIVSASPGEKVTITCSASSSVSYMHWYQQKPGTSPKLWIYSTSNLASGVPDRFSGSGSGTSYSLTISRMEAEDAATYYCQQRSSYPLTFGAGTKLELKRAATPVSEKQLAEVVANTITPLMKAQSVPGMAVAVIYQGKPHYYTFGKADIAANKPVTPQTLFELGSISKTFTGVLGGDAIARGEISLDDAVTRYWPQLTGKQWQGIRMLDLATYTAGGLPLQVPDEVTDNASLLRFYQNWQPQWKPGTTRLYANASIGLFGALAVKPSGMPYEQAMTTRVLKPLKLDHTWINVPKAEEAHYAWGYRDGKAVRVSPGMLDAQAYGVKTNVQDMANWVMANMAPENVADASLKQGIALAQSRYWRIGSMYQGLGWEMLNWPVEANTVVETSFGNVALAPLPVAEVNPPAPPVKASWVHKTGSTGGFGSYVAFIPEKQIGIVMLANTSYPNPARVEAAYHILEALQ | binds | 
NA06.10 (scFv) QVKLQQSGAELVKSGGSVKLSCTASGFNIKDSYMHWVRQGPEQGLEWIGWIDPENGDTEYAPKFQGKATFTTDTSSNTAYLQLSSLTSEDTAVYYCNEGTPTGPYYFDYWGQGTTVTVSSGGGGSGGGGSGGGGSENVLTQSPAIVSASPGEKVTITCSASSSVSYMHWFQQKPGTSPKLVIYSTSNLASGVPDRFSGSGSGTSYSLTISRMEAEDAATYYCQQRSSYPLTFGAGTKLELKRAATPVSEKQLAEVVANTITPLMKAQSVPGMAVAVIYQGKPHYYTFGKADIAANKPVTPQTLFELGSISKTFTGVLGGDAIARGEISLDDAVTRYWPQLTGKQWQGIRMLDLATYTAGGLPLQVPDEVTDNASLLRFYQNWQPQWKPGTTRLYANASIGLFGALAVKPSGMPYEQAMTTRVLKPLKLDHTWINVPKAEEAHYAWGYRDGKAVRVSPGMLDAQAYGVKTNVQDMANWVMANMAPENVADASLKQGIALAQSRYWRIGSMYQGLGWEMLNWPVEANTVVETSFGNVALAPLPVAEVNPPAPPVKASWVHKTGSTGGFGSYVAFIPEKQIGIVMLANTSYPNPARVEAAYHILEALQ |  | binds
NA06.12 (scFv) QVKLQQSGAELVKSGGSVKLSCTASGFNIKDSYMHWVRQGPEQGLEWIGWIDPENGDTEYAPKFQGKATFTTDTSSNTAYLQLSSLTSEDTAVYYCNEGTPTGPYYFDYWGQGTTVTVSSGGGGSGGGGSGGGGSQNVLTQSPAIMSASPGEKVTITCSASSSVSYMHWFQQKPGTSPKLVIYSTSNLASGVPARFSGSGSGTSYSLTISRMEAEDAATYYCQQRSSYPLTFGAGTKLELKRAATPVSEKQLAEVVANTITPLMKAQSVPGMAVAVIYQGKPHYYTFGKADIAANKPVTPQTLFELGSISKTFTGVLGGDAIARGEISLDDAVTRYWPQLTGKQWQGIRMLDLATYTAGGLPLQVPDEVTDNASLLRFYQNWQPQWKPGTTRLYANASIGLFGALAVKPSGMPYEQAMTTRVLKPLKLDHTWINVPKAEEAHYAWGYRDGKAVRVSPGMLDAQAYGVKTNVQDMANWVMANMAPENVADASLKQGIALAQSRYWRIGSMYQGLGWEMLNWPVEANTVVETSFGNVALAPLPVAEVNPPAPPVKASWVHKTGSTGGFGSYVAFIPEKQIGIVMLANTSYPNPARVEAAYHILEALQ |  | binds

— patent US20110160440A1 (GENENCOR INTERNATIONAL, published 2011)
